The values that follow come from US20230310629A1, “BISPECIFIC ANTIBODY-DRUG CONJUGATES TARGETING EGFR AND MUC1 AND USES THEREOF” (Merck Patent GmbH, priority 2020, published 2023).

The target in one data set is human MUC1-VNTR peptide (Homo sapiens, UniProt P15941). Kind of data set: Biacore binding to human MUC1-VNTR peptide (Example 1). On the procedure: An anti-MUC1 scFv (H02) was developed by affinity maturation of anti-MUC1 antibody HT186-D11 (see Thie H. et al. PLoS One […], 6, 1, e15921) using ribosome display selection. For the scFv library, CDRs H1, H2, H3 and L3 (SEQ ID NOs: 4, 5, 6, and 9) were targeted. scFv ribosome display selections were then performed against a biotinylated synthetic VNTR peptide of MUC ([…]-biotin) (SEQ ID NO:10).
In general terms: In SPR one partner is held on a chip, and binding of the other changes the refractive index at the surface.

Another data set deals with WISH cells. Briefly: WISH cell binding (Example 1). Also on record: species or system human; unit not given here.
Where [1] appears, read: human MUC1-VNTR, second data set.

B1: 1993-H02: anti-MUC1 antibody variant from affinity maturation of HT186-D11, with HT186-D11 light chain; developed as scFv (antibody, V domains shown)
VH: QMQLVQSEAELKKPGASVKVSCKASGYSFTSHFMHWVRQAPGQGLEWMGWIDPVTGGTKYAQNFQGWVTMTRDTSIRTAYLELSRLRSDDTAMYYCAREARADRGQFDKWGQGTLVTVAS
VL: QSVLTQPPSVSVAPGKTARITCGGNNIGSKSVHWYQQKPGQAPALVIYYGSNRPSGIPERFSGSNSGNTATLTISRVEAGDEADYYCQVWDSSSDWVFGGGTKLTVL
Consider B1, for which the “Turbidity A600” value worked out at 0.15. The kd with human MUC1-VNTR peptide (human MUC1-VNTR peptide, first data set) is reported as 2.14E−04 ½. In the data set with human MUC1-VNTR peptide (setting [1]), this molecule gave a ka1 of 126000 M⁻¹ s⁻¹ and a kd1 of 0.0017 s⁻¹. The Bmax with WISH cells turned out to be 128920.
